This is an account of results in patent US20220023399A1 (CONTRAFECT, published 2022).

The target in the assay is T1, human serum albumin (human, UniProt P02768 25-609).
T1 construct: also called HSA; rHSA
The experiment in a line: confocal/deconvolution microscopy; S. aureus ATCC 700699 pretreated with HSA 40 mg/mL, CF-301^RHD at 0.25×MIC.

T1 sequence (P02768 25-609): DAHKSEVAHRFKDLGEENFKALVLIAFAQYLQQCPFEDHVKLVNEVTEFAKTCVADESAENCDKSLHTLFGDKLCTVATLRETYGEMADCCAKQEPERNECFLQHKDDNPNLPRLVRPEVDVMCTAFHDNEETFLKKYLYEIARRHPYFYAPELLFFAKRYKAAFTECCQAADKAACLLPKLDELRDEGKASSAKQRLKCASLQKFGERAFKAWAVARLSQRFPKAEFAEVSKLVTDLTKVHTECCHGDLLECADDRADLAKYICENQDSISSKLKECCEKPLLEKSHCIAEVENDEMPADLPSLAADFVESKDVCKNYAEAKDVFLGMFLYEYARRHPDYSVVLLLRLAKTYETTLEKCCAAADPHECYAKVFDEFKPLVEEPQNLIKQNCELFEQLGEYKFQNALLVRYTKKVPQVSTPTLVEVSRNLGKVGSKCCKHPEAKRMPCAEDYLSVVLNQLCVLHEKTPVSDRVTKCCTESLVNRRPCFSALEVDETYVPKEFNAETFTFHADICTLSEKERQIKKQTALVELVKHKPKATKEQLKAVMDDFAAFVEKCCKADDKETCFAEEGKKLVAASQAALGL

B1: rhodamine-labeled PlySs2 (CF-301) (enzyme)
chain: MTTVNEALNNVRAQVGSGVSVGNGECYALASWYERMISPDATVGLGAGVGWVSGAIGDTISAKNIGSSYNWQANGWTVSTSGPFKAGQIVTLGATPGNPYGHVVIVEAVDGDRLTILEQNYGGKRYPVRNYYSAASYRQQVVHYITPPGTVAQSAPNLAGSRSYRETGTMTVTVDALNVRRAPNTSGEIVAVYKRGESFDYDTVIIDVNGYVWVSYIGGSGKRNYVATGATKDGKRFGNAWGTFK
notes: also called CF-301^RHD; CF-301^RHOD
Consider B1, for which the binding result is “binds”.
